Experimental findings from US5840673, “Insulin-like growth factor binding protein 3 (IGF-BP3) in treatment of p53-related tumors” (Bristol-Myers Squibb Company) are described below.

The data set deals with p53 (His-tagged, wild type) (Homo sapiens, UniProt P04637 P04637:1-393). Put plainly: EMSA; binding potentiated and supershifted by PAb421. To be noted: tags: His fusion, baculovirus-produced; chain copies: 4. Background: In EMSA bound probe runs differently from free probe, usually more slowly.
p53 (His-tagged, wild type), sequence (P04637 whole entry, the tested form may be a part, one chain of several): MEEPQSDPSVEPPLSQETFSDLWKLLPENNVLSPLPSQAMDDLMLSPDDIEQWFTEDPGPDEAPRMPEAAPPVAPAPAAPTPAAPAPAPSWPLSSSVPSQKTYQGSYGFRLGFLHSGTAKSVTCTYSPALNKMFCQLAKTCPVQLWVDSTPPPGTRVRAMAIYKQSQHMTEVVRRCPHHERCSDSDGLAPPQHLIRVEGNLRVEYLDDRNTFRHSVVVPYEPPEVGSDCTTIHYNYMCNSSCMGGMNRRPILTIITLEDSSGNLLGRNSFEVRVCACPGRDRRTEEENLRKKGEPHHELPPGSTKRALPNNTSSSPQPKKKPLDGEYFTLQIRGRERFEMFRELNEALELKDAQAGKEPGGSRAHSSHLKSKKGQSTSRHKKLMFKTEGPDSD

B1: IGF-BP3 Box B (dsDNA)
DNA 1: TCGAGAGGAGGGCAAGACCTGCCAAGCCTGGGTA
DNA 2: TACCCAGGCTTGGCAGGTCTTGCCCTCCTCTCGA
On to B1, for which the binding result is “binds”.

B2: IGF-BP3 Box A (dsDNA)
DNA 1: TCGAGAAAACAAGCCACCAACATGCTTGC
DNA 2: GCAAGCATGTTGGTGGCTTGTTTTCTCGA
In the case of B2, the binding result is recorded as “binds”.
